Tests used:
EPHB2 = EPHB2 (UniProt P29323); experiment: phosphorylation enrichment, bacterial display (enrichment ratio); higher = better substrate or ligand; peptides without Tyr show the background
MERTK = MERTK (UniProt Q12866); experiment: as above
Hck = Hck (UniProt P08631); experiment: as above
FGFR1 = FGFR1 (UniProt P11362); experiment: as above
Fyn = Fyn (UniProt P06241); experiment: as above
Jak2 = Jak2 (UniProt O60674); experiment: as above
EPHB1 = EPHB1 (UniProt P54762); experiment: as above
c-Abl (mouse) = experiment: as above
Fer (mouse) = experiment: as above
AncSZ = experiment: as above
c-Src = experiment: as above
Fes = Fes (UniProt P07332); experiment: as above
Sequence of Fes (P07332 whole entry, looked up): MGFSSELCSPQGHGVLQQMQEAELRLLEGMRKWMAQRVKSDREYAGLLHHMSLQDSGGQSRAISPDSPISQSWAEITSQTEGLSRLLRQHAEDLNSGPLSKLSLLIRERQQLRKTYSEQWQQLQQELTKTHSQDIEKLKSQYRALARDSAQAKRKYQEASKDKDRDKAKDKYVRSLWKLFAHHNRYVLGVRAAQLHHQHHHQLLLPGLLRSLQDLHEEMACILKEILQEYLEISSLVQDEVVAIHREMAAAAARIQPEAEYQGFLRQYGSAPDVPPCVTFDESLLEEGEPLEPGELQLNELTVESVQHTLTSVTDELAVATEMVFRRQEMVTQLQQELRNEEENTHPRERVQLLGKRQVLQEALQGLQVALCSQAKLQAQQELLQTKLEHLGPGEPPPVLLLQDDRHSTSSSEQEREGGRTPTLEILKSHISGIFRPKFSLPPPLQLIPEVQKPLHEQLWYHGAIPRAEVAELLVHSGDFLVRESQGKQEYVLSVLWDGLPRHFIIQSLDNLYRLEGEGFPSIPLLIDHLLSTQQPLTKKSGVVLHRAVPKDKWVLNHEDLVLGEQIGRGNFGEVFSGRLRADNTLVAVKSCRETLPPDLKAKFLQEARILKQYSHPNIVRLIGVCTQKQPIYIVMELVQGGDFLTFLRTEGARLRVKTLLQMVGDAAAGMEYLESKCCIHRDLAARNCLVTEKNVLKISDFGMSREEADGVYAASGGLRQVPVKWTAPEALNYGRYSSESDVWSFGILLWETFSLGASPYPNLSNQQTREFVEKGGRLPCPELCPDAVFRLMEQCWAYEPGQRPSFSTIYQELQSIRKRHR

FGFR3 = FGFR3 (UniProt P22607); experiment: as above
Sequence of FGFR3 (P22607 whole entry, looked up): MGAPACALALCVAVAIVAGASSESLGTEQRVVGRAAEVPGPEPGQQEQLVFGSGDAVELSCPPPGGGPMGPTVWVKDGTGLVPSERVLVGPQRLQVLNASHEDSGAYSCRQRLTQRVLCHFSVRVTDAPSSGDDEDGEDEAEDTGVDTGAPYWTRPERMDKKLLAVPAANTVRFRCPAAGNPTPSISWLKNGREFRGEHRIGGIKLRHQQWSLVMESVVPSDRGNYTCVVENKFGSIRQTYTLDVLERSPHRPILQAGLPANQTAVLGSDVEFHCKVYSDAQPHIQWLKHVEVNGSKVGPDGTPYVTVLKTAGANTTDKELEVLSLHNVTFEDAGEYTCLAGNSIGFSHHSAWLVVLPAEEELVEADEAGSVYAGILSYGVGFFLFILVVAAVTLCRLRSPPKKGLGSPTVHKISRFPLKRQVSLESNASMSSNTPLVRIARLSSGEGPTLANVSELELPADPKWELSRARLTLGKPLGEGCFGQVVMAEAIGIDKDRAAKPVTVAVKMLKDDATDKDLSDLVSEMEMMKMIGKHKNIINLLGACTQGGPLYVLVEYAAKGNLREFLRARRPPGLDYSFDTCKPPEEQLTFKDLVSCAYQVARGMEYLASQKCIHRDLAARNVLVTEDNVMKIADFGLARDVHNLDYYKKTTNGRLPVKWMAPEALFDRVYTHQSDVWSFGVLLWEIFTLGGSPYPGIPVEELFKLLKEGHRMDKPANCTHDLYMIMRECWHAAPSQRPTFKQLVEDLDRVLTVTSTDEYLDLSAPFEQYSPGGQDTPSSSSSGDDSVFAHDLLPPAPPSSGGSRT

c-Src SH2 = experiment: SH2 binding enrichment of the phosphorylated peptide, bacterial display (enrichment ratio); higher = better substrate or ligand; peptides without Tyr show the background
SHP2-C SH2 = experiment: as above
Grb2 SH2 = Grb2 SH2 (UniProt P62993); experiment: as above
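For SH2 binding enrichment of the phosphorylated peptide, bacterial display in this document: peptide library displayed on the E. coli surface as eCPX fusions, selected cells deep-sequenced, score is each peptide's frequency after selection divided by its frequency in the input.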
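For phosphorylation enrichment, bacterial display in this document: 11-residue human phosphosite peptides and single-mutation variants displayed on the E. coli surface, counted by deep sequencing, each peptide's frequency after selection divided by its frequency in the unselected input library; frequency after pTyr selection over input frequency; kinase dosed for 20-30% of maximal phosphorylation in three min.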

Sequence of Jak2 (O60674 whole entry, looked up): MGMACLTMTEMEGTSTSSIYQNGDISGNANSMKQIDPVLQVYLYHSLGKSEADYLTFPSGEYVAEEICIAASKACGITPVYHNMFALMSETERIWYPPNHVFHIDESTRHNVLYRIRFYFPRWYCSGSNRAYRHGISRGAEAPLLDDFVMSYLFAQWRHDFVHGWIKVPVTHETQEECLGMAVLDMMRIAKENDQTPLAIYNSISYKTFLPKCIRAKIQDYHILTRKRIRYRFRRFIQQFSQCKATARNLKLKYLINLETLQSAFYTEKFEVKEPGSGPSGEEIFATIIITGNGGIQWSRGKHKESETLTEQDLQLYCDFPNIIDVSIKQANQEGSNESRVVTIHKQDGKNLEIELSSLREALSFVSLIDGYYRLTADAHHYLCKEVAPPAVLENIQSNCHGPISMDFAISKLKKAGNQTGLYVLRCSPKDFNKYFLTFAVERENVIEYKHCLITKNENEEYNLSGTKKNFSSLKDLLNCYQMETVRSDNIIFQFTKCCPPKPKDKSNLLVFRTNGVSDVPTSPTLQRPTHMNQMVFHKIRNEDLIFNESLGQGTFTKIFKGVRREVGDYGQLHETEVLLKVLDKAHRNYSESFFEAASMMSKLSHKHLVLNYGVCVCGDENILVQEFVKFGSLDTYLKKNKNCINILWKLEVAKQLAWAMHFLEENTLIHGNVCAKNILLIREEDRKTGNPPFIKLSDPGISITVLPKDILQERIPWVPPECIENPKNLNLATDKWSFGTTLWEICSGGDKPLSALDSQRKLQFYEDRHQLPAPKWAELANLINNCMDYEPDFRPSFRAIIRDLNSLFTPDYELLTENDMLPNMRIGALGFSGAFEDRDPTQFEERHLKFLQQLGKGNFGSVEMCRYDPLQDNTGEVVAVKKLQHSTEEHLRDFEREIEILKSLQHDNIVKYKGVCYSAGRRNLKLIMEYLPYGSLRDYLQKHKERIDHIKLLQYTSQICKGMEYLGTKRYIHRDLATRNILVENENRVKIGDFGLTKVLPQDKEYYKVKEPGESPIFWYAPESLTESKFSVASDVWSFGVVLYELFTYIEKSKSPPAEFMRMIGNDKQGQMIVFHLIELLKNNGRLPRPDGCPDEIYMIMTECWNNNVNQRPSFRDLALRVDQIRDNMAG
Sequence of Fyn (P06241 whole entry, looked up): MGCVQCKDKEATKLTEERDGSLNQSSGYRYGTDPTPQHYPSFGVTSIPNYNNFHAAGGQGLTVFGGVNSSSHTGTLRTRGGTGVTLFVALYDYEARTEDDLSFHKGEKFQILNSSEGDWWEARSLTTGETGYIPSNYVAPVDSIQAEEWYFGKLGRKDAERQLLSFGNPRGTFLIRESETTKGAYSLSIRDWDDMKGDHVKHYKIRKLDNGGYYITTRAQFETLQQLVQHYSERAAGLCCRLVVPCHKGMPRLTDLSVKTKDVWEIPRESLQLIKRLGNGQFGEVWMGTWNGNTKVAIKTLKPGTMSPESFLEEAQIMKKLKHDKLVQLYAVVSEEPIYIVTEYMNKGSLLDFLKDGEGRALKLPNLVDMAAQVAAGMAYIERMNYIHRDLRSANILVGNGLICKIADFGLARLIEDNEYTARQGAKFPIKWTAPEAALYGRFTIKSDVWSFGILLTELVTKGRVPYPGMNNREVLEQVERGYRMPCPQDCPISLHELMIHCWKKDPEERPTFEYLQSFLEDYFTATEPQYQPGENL
Sequence of EPHB2 (P29323 whole entry, looked up): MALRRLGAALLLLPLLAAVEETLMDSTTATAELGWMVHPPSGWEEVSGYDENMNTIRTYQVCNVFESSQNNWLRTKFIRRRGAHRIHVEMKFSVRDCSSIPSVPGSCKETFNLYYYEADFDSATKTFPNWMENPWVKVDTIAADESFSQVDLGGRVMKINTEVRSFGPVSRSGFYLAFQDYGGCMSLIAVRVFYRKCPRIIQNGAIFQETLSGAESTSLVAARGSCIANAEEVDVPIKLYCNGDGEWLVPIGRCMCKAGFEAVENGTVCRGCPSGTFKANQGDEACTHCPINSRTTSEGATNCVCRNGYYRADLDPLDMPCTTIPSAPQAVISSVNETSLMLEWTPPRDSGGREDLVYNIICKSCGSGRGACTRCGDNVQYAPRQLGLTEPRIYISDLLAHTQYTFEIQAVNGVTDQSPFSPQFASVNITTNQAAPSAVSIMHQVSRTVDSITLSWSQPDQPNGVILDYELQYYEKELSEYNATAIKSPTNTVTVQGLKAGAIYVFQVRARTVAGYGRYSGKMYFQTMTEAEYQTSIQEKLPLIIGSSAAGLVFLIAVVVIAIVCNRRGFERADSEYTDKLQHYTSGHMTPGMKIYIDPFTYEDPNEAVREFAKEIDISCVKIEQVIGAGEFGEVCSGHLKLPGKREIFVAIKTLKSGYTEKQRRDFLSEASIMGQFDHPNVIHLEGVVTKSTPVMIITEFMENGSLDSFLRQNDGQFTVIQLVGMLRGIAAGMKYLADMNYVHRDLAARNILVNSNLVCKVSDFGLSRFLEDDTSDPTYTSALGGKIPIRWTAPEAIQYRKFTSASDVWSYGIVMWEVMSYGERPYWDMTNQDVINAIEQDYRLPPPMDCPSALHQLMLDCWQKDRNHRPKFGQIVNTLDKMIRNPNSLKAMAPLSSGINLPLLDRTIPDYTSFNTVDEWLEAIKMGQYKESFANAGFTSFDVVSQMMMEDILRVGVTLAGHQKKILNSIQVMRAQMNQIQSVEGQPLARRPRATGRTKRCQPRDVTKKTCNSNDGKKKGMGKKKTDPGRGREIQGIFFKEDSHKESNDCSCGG
Sequence of Hck (P08631 whole entry, looked up): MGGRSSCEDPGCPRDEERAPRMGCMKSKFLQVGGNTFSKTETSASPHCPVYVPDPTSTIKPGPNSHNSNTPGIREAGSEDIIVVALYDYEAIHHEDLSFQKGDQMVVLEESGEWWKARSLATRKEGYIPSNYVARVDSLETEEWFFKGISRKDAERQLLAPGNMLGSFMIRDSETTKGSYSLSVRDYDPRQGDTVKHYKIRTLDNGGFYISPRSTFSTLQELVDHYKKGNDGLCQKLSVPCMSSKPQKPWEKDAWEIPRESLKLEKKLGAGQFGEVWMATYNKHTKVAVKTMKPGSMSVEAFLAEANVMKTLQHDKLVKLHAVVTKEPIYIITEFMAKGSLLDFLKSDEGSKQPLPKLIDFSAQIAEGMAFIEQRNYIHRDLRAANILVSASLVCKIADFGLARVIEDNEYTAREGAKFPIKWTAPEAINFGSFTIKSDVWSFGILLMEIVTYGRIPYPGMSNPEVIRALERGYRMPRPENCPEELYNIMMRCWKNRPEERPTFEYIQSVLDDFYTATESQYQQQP

Sequence | phosphorylation enrichment (EPHB2) | phosphorylation enrichment (MERTK) | phosphorylation enrichment (Hck) | phosphorylation enrichment (FGFR1) | phosphorylation enrichment (Fyn) | phosphorylation enrichment (Jak2) | phosphorylation enrichment (EPHB1) | phosphorylation enrichment (c-Abl (mouse)) | phosphorylation enrichment (Fer (mouse)) | phosphorylation enrichment (AncSZ) | phosphorylation enrichment (c-Src) | phosphorylation enrichment (Fes) | phosphorylation enrichment (FGFR3) | SH2 binding enrichment (c-Src SH2) | SH2 binding enrichment (SHP2-C SH2) | SH2 binding enrichment (Grb2 SH2)
YRQLQYCPSVE [CTNND2_Y508] | 0.591 | 0.483 | 0.606 | 0.545 | 0.538 | 0.857 | 0.661 | 0.861 | 0.637 | 1.11 | 0.476 | 1.31 | 0.928 | 0.472 | 0.488 | 0.678
QRAADYFSQQM [GBP6_Y333_YF] | 0.57 | 0.352 | 0.488 | 0.558 | 0.546 | 0.698 | 0.469 | 0.586 | 0.491 | 1 | 0.687 | 0.921 | 0.634 | 0.338 | 0.353 | 0.789
KVGNEYVNKGQ [MYH7_Y410_T412N] | 0.553 | 0.373 | 0.327 | 0.492 | 0.412 | 0.424 | 0.337 | 0.422 | 0.404 | 0.581 | 0.428 | 0.541 | 0.391 | 0.444 | 0.706 | 2.24
LEFNEYFRDLN [HPRT1_Y198_D194E_YF] | 1.15 | 0.795 | 0.828 | 1.09 | 0.992 | 1.25 | 1.21 | 0.805 | 0.769 | 2.14 | 0.809 | 1.66 | 1.95 | 0.488 | 0.743 | 0.926
VNQSGYTLIRK [ATP6V0A2_Y688_R685Q] | 0.478 | 0.433 | 0.476 | 0.452 | 0.387 | 0.538 | 0.42 | 0.391 | 0.401 | 0.572 | 0.418 | 0.563 | 0.465 | 8.52 | 9.3 | 0.861
FIGCIYLYLTK [GARS1_Y414_R412C] | 0.451 | 0.435 | 0.373 | 0.535 | 0.393 | 1.28 | 0.614 | 0.746 | 0.486 | 1.02 | 0.704 | 0.96 | 0.79 | 1.04 | 1.53 | 1.51
PGIRMYQVQFN [LRFN1_Y454_YF] | 0.505 | 0.349 | 0.384 | 0.31 | 0.504 | 0.789 | 0.467 | 0.636 | 0.423 | 0.619 | 0.583 | 0.863 | 0.531 | 0.997 | 1.12 | 1.61
PEVSGYCHYAD [TG_Y234_C237Y] | 0.616 | 0.425 | 0.658 | 0.427 | 0.506 | 1.04 | 0.831 | 1.2 | 1.1 | 0.864 | 0.454 | 1.1 | 0.714 | 0.935 | 0.676 | 0.691
KLIMECLPFGS [JAK2_Y931_Y931C_YF] | 0.588 | 0.521 | 0.652 | 0.576 | 0.619 | 1.57 | 0.969 | 0.96 | 0.622 | 1.24 | 0.611 | 1.39 | 0.858 | 0.559 | 0.491 | 0.706
GTVRDYPDFSP [ANXA3_Y15] | 0.559 | 0.364 | 0.49 | 0.508 | 0.444 | 0.702 | 0.44 | 0.532 | 0.395 | 0.759 | 0.372 | 0.79 | 0.587 | 0.439 | 0.623 | 0.732
PVDTFYDSTRG [DYNC2H1_Y2231_M2227V_YF] | 0.551 | 0.404 | 0.888 | 0.423 | 0.671 | 0.939 | 0.638 | 1.04 | 0.917 | 0.973 | 0.671 | 0.95 | 0.722 | 0.503 | 0.652 | 0.661
RPDSPYSRLHD [DOK2_Y271_P274L] | 0.467 | 0.85 | 0.614 | 0.552 | 0.464 | 3.09 | 0.471 | 0.957 | 0.65 | 0.916 | 0.884 | 0.983 | 0.657 | 2.87 | 1.1 | 0.796
TQFWLYFAGNL [SLC25A5_Y112] | 0.665 | 0.576 | 0.479 | 0.534 | 0.376 | 1.64 | 0.681 | 1.22 | 0.498 | 1.23 | 0.652 | 1.57 | 1 | 0.509 | 0.557 | 0.742
GGRKGYGDFSR [RECQL5_Y478] | 0.354 | 0.425 | 0.33 | 0.345 | 0.334 | 0.422 | 0.412 | 0.944 | 0.352 | 0.416 | 0.418 | 0.622 | 0.363 | 0.674 | 0.798 | 1.15
GRGMPYGGRGD [TGM1_Y312_R307G] | 0.325 | 0.379 | 0.4 | 0.355 | 0.343 | 0.488 | 0.338 | 0.513 | 0.399 | 0.476 | 0.402 | 0.476 | 0.449 | 0.513 | 0.648 | 0.87
SVCPDYDLCSI [SQSTM1_Y148_V153I] | 0.914 | 0.616 | 0.599 | 0.709 | 0.868 | 1.11 | 0.942 | 0.876 | 2.9 | 1.72 | 0.801 | 1.16 | 0.763 | 0.692 | 0.733 | 0.968
NLVSEYQQFQD [TUBB3_Y422_D417N_YF] | 0.624 | 0.429 | 0.535 | 0.545 | 0.574 | 1.08 | 0.739 | 0.88 | 0.556 | 1.17 | 0.698 | 1.14 | 0.745 | 0.64 | 0.673 | 0.74

Sequence | phosphorylation enrichment (EPHB2) | phosphorylation enrichment (MERTK) | phosphorylation enrichment (Hck) | phosphorylation enrichment (FGFR1) | phosphorylation enrichment (Fyn) | phosphorylation enrichment (Jak2) | phosphorylation enrichment (EPHB1) | phosphorylation enrichment (c-Abl (mouse)) | phosphorylation enrichment (Fer (mouse)) | phosphorylation enrichment (AncSZ) | phosphorylation enrichment (c-Src) | phosphorylation enrichment (Fes) | phosphorylation enrichment (FGFR3) | SH2 binding enrichment (c-Src SH2) | SH2 binding enrichment (SHP2-C SH2) | SH2 binding enrichment (Grb2 SH2)
VEDHDYEGGIG [TKT_Y564_Y563D] | 0.785 | 0.517 | 0.609 | 0.571 | 0.518 | 1.24 | 0.737 | 1.01 | 0.602 | 1.49 | 0.624 | 1.45 | 0.874 | 0.402 | 0.506 | 0.697
ENRKYYKDLKE [PURA_Y156_M157K] | 0.298 | 0.34 | 0.295 | 0.359 | 0.359 | 0.772 | 0.34 | 0.549 | 0.318 | 0.55 | 0.352 | 0.766 | 0.457 | 0.592 | 0.574 | 0.713
FTFDPYSEEDP [IL2RB_Y387_YF] | 0.642 | 0.426 | 0.562 | 0.61 | 0.839 | 1.17 | 0.694 | 0.772 | 0.686 | 1.08 | 1.18 | 1.23 | 0.698 | 0.651 | 0.823 | 1.09
IVLRSYPASDH [NID2_Y449_G453D] | 0.495 | 0.465 | 0.44 | 0.496 | 0.478 | 0.743 | 0.543 | 0.583 | 0.44 | 0.966 | 0.416 | 0.823 | 0.546 | 0.467 | 0.793 | 1.01
LDYNEYFRDLN [HPRT1_Y198] | 0.753 | 0.519 | 0.661 | 1.39 | 0.828 | 1.68 | 0.741 | 1.13 | 0.555 | 1.81 | 0.649 | 1.33 | 1.28 | 0.645 | 0.861 | 0.727
FEREQYADRAR [RBM4_Y355_YF] | 0.446 | 0.331 | 0.426 | 0.426 | 0.484 | 0.515 | 0.414 | 0.464 | 0.394 | 0.626 | 0.396 | 0.727 | 0.587 | 0.536 | 0.567 | 0.956
SGIYQYIIAKF [FOXL2_Y83] | 5.98 | 8.1 | 6.52 | 6.4 | 4.03 | 0.852 | 10.6 | 6.06 | 9.49 | 1.15 | 3.69 | 1.72 | 4.7 | 1.07 | 1.05 | 1.24
MAFDRYAAICS [OR8H2_Y123_H120Y_YF] | 0.998 | 0.889 | 0.76 | 0.548 | 0.479 | 1.2 | 0.893 | 0.95 | 0.597 | 1.15 | 0.576 | 1.3 | 0.641 | 1.93 | 0.881 | 0.853
KVMANYVYKAG [MAML2_Y513_M514V] | 0.37 | 0.361 | 0.386 | 0.398 | 0.339 | 0.514 | 0.395 | 0.453 | 0.358 | 0.465 | 0.355 | 0.551 | 0.452 | 0.723 | 1.28 | 0.874
KDHLDYKYQPR [SOX9_Y172_P170L] | 0.448 | 0.418 | 0.415 | 0.462 | 0.441 | 0.452 | 0.419 | 0.451 | 0.445 | 0.585 | 0.433 | 0.704 | 0.629 | 0.697 | 1.09 | 1.18
EPVSDYINADI [PTPN11_Y304_N308D] | 0.689 | 0.492 | 0.637 | 0.77 | 0.581 | 1.12 | 0.695 | 9 | 0.614 | 1.5 | 0.514 | 1.33 | 0.908 | 0.464 | 0.437 | 0.761
LLREWYLPDPF [SIX3_Y225_Q227P_YF] | 0.711 | 0.583 | 0.791 | 1.25 | 1.11 | 1.4 | 1.22 | 1.13 | 0.871 | 2.26 | 0.747 | 2.2 | 1.36 | 0.863 | 1.06 | 1.3
PHIKTYMRPSP [TDP1_Y497] | 0.518 | 0.429 | 0.441 | 0.629 | 0.861 | 0.586 | 0.645 | 0.654 | 0.543 | 0.702 | 0.435 | 0.688 | 0.547 | 0.695 | 0.777 | 0.829
SLRAHYDTPRS [DOK7_Y405] | 0.351 | 0.319 | 0.328 | 0.343 | 0.349 | 0.402 | 0.392 | 0.412 | 0.367 | 0.428 | 0.298 | 0.448 | 0.351 | 3.32 | 0.914 | 0.712
GEDPIYVTLEG [RTKtide_2018] | 6.76 | 2.29 | 3.44 | 4.71 | 5.05 | 1.2 | 5.64 | 1.7 | 3.86 | 1.81 | 3.9 | 1.47 | 3.4 | 0.718 | 0.485 | 0.906
KVDKECEVRVR [GHR_Y226_Y226C] | 0.569 | 0.355 | 0.414 | 0.502 | 0.421 | 0.821 | 0.513 | 0.638 | 0.478 | 0.739 | 0.446 | 0.832 | 0.556 | 0.575 | 0.842 | 0.889
